Data reported in patent US20090098074A1.
Blank lines part the entries; values can stand above or below the binder they belong to.

Experiments:
[1] = target: human hair (hair keratin) (human); assay: quantitative hair-binding test; His-tagged protein on 5 mg human hair, anti-polyHistidine peroxidase conjugate, TMB
[2] = target: human hair (hair keratin) (human); assay: quantitative hair-binding test; loss of A405 after 10% SDS relative to untreated hair
[3] = target: human skin (skin keratin) (human); assay: quantitative skin-binding test; loss of A405 after 10% SDS relative to untreated skin
[4] = target: human skin (skin keratin) (human); assay: quantitative skin-binding test, after washing with 10% strength SDS; value standardized to the surface
[5] = target: human hair (hair keratin) (human); assay: quantitative hair-binding test, after washing with 10% strength SDS; value standardized to the surface
[6] = target: human hair (hair keratin) (human); assay: quantitative hair-binding test on 5 mg human hair, anti-polyHistidine peroxidase/TMB; value standardized to the surface
[7] = target: human skin (skin keratin) (human); assay: quantitative skin-binding test on human keratinocytes in microtiter plates, anti-His antibody/TMB; value standardized to the surface
[8] = target: human hair (hair keratin) (human); assay: quantitative hair-binding test; DENATURED KBD-B on 5 mg human hair, anti-polyHistidine peroxidase conjugate, TMB
[9] = target: human hair (hair keratin) (human); assay: quantitative hair-binding test; renatured KBD-B on 5 mg human hair, anti-polyHistidine peroxidase conjugate, TMB

Absorption at 405 nm [1]: 0.088
B1: comparison Protein YaaD from B. subtilis (with His tag) (protein, UniProt P37527 1-294, looked up, not shown: small tags and cut ends)
chain: MAQTGTERVKRGMAEMQKGGVIMDVINAEQAKIAEEAGAVAVMALERVPADIRAAGGVARMADPTIVEEVMNAVSIPVMAKARIGHIVEARVLEAMGVDYIDESEVLTPADEEFHLNKNEYTVPFVCGCRDLGEATRRIAEGASMLRTKGEPGTGNIVEAVRHMRKVNAQVRKVVAMSEDELMTEAKNLGAPYELLLQIKKDGKLPVVNFAAGGVATPADAALMMQLGADGVFVGSGIFKSDNPAKFAKAIVEATTHFTDYKLIAELSKELGTAMKGIEISNLLPEQRMQERGW

Relative absorption loss after 10% strength SDS treatment in % [2]: 30%
Relative absorption loss after 10% strength SDS treatment in % [3]: 15%
Absorption at 405 nm [4]: 3.15
Absorption at 405 nm [5]: 0.62
Absorption at 405 nm [6]: 0.88
Absorption at 405 nm [7]: 3.69
B2: KBD-D (SEQ ID No.: 168), keratin-binding domain D, H. sapiens plakophilin 1a with N-terminal histidine anchor (protein)
chain: MRGSHHHHHHGSACELGTMNHSPLKTALAYECFQDQDNSTLALPSDQKMKTGTSGRQRVQEQVMMTVKRQKSKSSQSSTLSHSNRGSMYDGLADNYNYGTTSRSSYYSKFQAGNGSWGYPIYNGTLKREPDNRRFSSYSQMENWSRHYPRGSCNTTGAGSDICFMQKIKASRSEPDLYCDPRGTLRKGTLGSKGQKTTQNRYSFYSTCSGQKAIKKCPVRPPSCASKQDPVYIPPISCNKDLSFGHSRASSKICSEDIECSGLTIPKAVQYLSSQDEKYQAIGAYYIQHTCFQDESAKQQVYQLGGICKLVDLLRSPNQNVQQAAAGALRNLVFRSTTNKLETRRQNGIREAVSLLRRTGNAEIQKQLTGLLWNLSSTDELKEELIADALPVLADRVIIPFSGWCDGNSNMSREVVDPEVFFNATGCLRNLSSADAGRQTMRNYSGLIDSLMAYVQNCVAASRCDDKSVENCMCVLHNLSYRLDAEVPTRYRQLEYNARNAYTEKSSTGCFSNKSDKMMNNNYDCPLPEEETNPKGSGWLYHSDAIRTYLNLMGKSKKDATLEACAGALQNLTASKGLMSSGMSQLIGLKEKGLPQIARLLQSGNSDVVRSGASLLSNMSRHPLLHRVMGNQVFPEVTRLLTSHTGNTSNSEDILSSACYTVRNLMASQPQLAKQYFSSSMLNNIINLCRSSASPKAAEAARLLLSDMWSSKELQGVLRQQGFDRNMLGTLAGANSLRNFTSRF

Relative absorption loss after 10% strength SDS treatment in % [2]: 86%
Relative absorption loss after 10% strength SDS treatment in % [3]: 80%
Absorption at 405 nm [4]: 0.185
Absorption at 405 nm [8]: 0.254
Absorption at 405 nm [9]: 1.59
Absorption at 405 nm [7]: 0.93
B3: KBD-B (SEQ ID No.: 166), keratin-binding domain B of human desmoplakin expressed from pQE30-KBD-B in E. coli (protein)
chain: MRGSHHHHHHGSACELEPHTGLLLLSVQKRSMSFQGIRQPVTVTELVDSGILRPSTVNELESGQISYDEVGERIKDFLQGSSCIAGIYNETTKQKLGIYEAMKIGLVRPGTALELLEAQAATGFIVDPVSNLRLPVEEAYKRGLVGIEFKEKLLSAERAVTGYNDPETGNIISLFQAMNKELIEKGHGIRLLEAQIATGGIIDPKESHRLPVDIAYKRGYFNEELSEILSDPSDDTKGFFDPNTEENLTYLQLKERCIKDEETGLCLLPLKEKKKQVQTSQKNTLRKRRVVIVDPETNKEMSVQEGVDLQPSLIS
